The target in experiment [1] is T1, biotinylated human IL-6R (shIL6R-Avitag) (human, UniProt P08887 20-357, biotinylated at the C-terminal AviTag sequence by biotin ligase (BirA)).
T1 construct: It was captured on a StreptaWell plate in the phage ELISA; its preparation is described in (3-3); also called biotinylated hIL-6R
T1 sequence: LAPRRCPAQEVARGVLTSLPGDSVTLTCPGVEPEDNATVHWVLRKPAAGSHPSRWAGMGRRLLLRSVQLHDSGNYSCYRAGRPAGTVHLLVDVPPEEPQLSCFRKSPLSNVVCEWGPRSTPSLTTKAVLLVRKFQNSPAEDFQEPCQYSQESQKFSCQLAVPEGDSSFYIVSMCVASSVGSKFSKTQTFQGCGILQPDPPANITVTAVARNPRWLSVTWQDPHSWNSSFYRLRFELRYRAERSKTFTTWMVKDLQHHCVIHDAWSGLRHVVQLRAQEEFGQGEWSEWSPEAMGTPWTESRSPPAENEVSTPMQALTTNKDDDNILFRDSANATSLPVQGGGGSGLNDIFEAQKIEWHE
The experiment in a line: phage ELISA, plate coated with biotinylated human IL-6R, detection with HRP anti-M13 antibody, absorbance at 450 nm. How it is done: The phage ELISA method was carried out to confirm Fab display on the produced phage and to confirm the ability to bind to the antigen. StreptaWell 96-well microtiter plate (F. Hoffmann-La Roche, Ltd.) was coated by the addition of 100 μL of PBS containing Goat anti-Human Kappa Biotin antibody (EY Laboratories, Inc.) or biotinylated human IL-6R. Each well of the plate was washed with 0.1×TBST (0.1×TBS containing 0.1% Tween 20) to remove the antigen. Then, the plate was blocked for 1 hour or longer by the addition of 250 μL of 0.02% skim milk-0.1×TBS (0.1×TBS containing 0.02% skim milk) to the well. […] After washing with 0.1×TBST, an HRP-conjugated anti-M13 antibody (Amersham Pharmacia Biotech) diluted with 0.1×TBST was added to each well, and the plate was incubated for 1 hour. After washing with 0.1×TBST, TMB single solution (Zymed Laboratories Inc.) was added to each well. The color reaction of the solution was further terminated by the addition of sulfuric acid. Then, the absorbance was measured at 450 nm.
A general note: In an ELISA, binding on a coated surface is turned into a signal by an enzyme label.

The target in experiment [2] is T2, human plexin A1 protein sema domain (from glutamic acid at position 28 to serine at position 514) tagged at … (human, UniProt Q9UIW2 28-514).
T2 construct: also called human plexin A1 sema domain
T2 sequence: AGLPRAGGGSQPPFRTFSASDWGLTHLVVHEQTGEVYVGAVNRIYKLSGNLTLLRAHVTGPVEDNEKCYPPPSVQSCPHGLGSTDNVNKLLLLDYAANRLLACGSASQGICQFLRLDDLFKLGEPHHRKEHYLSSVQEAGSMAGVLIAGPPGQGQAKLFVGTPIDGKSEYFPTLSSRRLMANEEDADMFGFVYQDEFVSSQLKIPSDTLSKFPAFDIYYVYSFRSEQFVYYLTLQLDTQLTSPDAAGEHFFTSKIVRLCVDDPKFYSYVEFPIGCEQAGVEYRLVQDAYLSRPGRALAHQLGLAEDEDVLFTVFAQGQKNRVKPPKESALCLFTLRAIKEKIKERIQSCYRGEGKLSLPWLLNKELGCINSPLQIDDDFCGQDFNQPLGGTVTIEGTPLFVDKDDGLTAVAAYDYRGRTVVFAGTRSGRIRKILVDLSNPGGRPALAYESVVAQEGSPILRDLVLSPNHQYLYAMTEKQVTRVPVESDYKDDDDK
The experiment in a line: SPR, Biacore T200; the parent antibody itself (control). How it is done: (§1) Each antibody obtained in the paragraph (10-1) was evaluated for its binding activity against the antigen by surface plasmon resonance (SPR) analysis.
(§2) In the SPR analysis, the antibody was analyzed using Biacore T200 (GE Healthcare Japan Corp.). The anti-human plexin A1 antibody was immobilized onto the surface of Sensor Chip CM4 using Recombinant Protein A/G (Thermo Fisher Scientific Inc.) and Amine Coupling Kit (GE Healthcare Japan Corp.). The antigen used was a human plexin A1 protein sema domain (from glutamic acid at position 28 to serine at position 514) tagged at the C terminus of the protein with FLAG tag. The antigen was prepared as follows: an expression vector carrying a cDNA corresponding to the human plexin A1 sema domain was transferred to FreeStyle 293 cells. After culture, the obtained culture solution was passed through an anti-FLAG-M2 antibody-immobilized affinity column. A fraction eluted with the FALG peptide was purified by gel filtration. The obtained antigen was serially diluted with 20 mM ACES, 150 mM NaCl, 0.05% polysorbate 20, and 1.2 mM CaCl₂ (pH 7.4) and added to the sensor chip at a flow rate of 30 μL/min. In this assay system, the dissociation constant (KD) between the human plexin A1 protein and the anti-human plexin A1 antibody was calculated using data analysis software (BIA T200 Evaluation software ver. 2).

Experiment [3] deals with T2, human plexin A1 protein sema domain …. The experiment in a line: SPR, Biacore T200; antibody held by Protein A/G on CM4 chip, sema domain as analyte. How it is done: as §1, §2
Experiment [4] has the same target. The experiment is described as follows: SPR, Biacore T200; KD against parent antibody hPANLB2-3_264. The procedure: as §1, §2
For orientation: In SPR one partner is held on a chip, and binding of the other changes the refractive index at the surface.

The target is the same in experiment [5]. The experiment is described as follows: SPR, Biacore T200; KD against parent antibody hPANLB2-3_359. How it is done:
as §1, §2

B1: phage produced by the H chain (PF1H)-expressing phagemid vector and the negative control helper phage M13KO7TC (other)
heavy: QVQLQESGPGLVKPSETLSLTCAVSGYSISDDHAWSWVRQPPGEGLEWIGYISYSGITNYNPSLKGRVTISRDTSKNQFSLKLSSVTAADTAAYYCARVLARITAMDYWGEGTLVTVSSASTKGPSVFPLAPSSKSTSGGTAALGCLVKDYFPEPVTVSWNSGALTSGVHTFPAVLQSSGLYSLSSVVTVPSSSLGTQTYICNVNHKPSNTKVDKK
notes: Control phage without an L chain; not shown: linker peptide and gene 3 protein (g3p)
B1: in experiment [1], the binding result was “no binding”.

B2: hPANLB2-3_264 (antibody, human IgG1, lambda, V domains shown)
VH: QVQLQQSGPGLVKPSQTLSLTCAISGDSVSSNSAAWNWIRQSPSRGLEWLGRTYYRSKWYNDYAVSVKSRITINPDTSKNQFSLQLNSVTPEDTAVYYCARDRGYSYGFDYWGQGTLVTVSS
VL: SYLLTQPPSVSVSPGQTASITCSGDKLGQKFVSWYQQRPGQSPVLVIYQDTKRPSGIPERFSGSNSGNTATLTISGTQAMDEADYYCQAWDSSTAGVFGGGTNLTVLG
notes: Parent anti-plexin A1 antibody, IgG
On to B2, for which, in experiment [2], the “Relative KD improvement” value was 1 fold. In addition, the Kd in experiment [3] amounted to 173 nM.

B3: PLR4H264#061 (antibody, human IgG1, lambda, V domains shown)
VH: QVQLQQSGPGLVKPSQTLSLTCAISGDSVSSNSAAWNWIRQSPSRGLEWLGRTYYRSKWYNDYAVSVKSRITINPDTSKNQFSLQLNSVTPEDTAVYYCARDRGYSYGFDYWGQGTLVTVSS
VL: SYELTQPPSVAVSPGQTASITCSGHKLGEKYASWYQQKPGQSPVLVIYQDTKRPSGIPERFSGSNSGNTATLTISGTQAMDEADYYCQAWDSSSVCVFGTGTKVTVLG
notes: IgG from the 264H-NL library
As for B3, the “Relative KD improvement” value in experiment [4] was 4.2 fold. The same molecule displayed a Kd in experiment [3] of 41 nM.

B4: PLR3H264#022 (antibody, human IgG1, lambda, V domains shown)
VH: QVQLQQSGPGLVKPSQTLSLTCAISGDSVSSNSAAWNWIRQSPSRGLEWLGRTYYRSKWYNDYAVSVKSRITINPDTSKNQFSLQLNSVTPEDTAVYYCARDRGYSYGFDYWGQGTLVTVSS
VL: SYVLTQPRSVSVSPGQTTRITCSGQNLGEKYISWYRQKPGQSPEVLIYEDKRRPSGIPERISGANSGGTATLTISGTQAMDEADYFCQAWVSSTEGVFGGGTRLTVLR
notes: IgG from the 264H-NL library
With B4, the “Relative KD improvement” value in experiment [4] was found to be 3 fold. This molecule came in with a Kd in experiment [3] of 56.9 nM.

B5: PLR2H264#002 (antibody, human IgG1, lambda, V domains shown)
VH: QVQLQQSGPGLVKPSQTLSLTCAISGDSVSSNSAAWNWIRQSPSRGLEWLGRTYYRSKWYNDYAVSVKSRITINPDTSKNQFSLQLNSVTPEDTAVYYCARDRGYSYGFDYWGQGTLVTVSS
VL: SYELTQPPSVSVSPGQTASITCSGDKLGNKYVSWYQRRPGQSPVLVIYQDSKRPSGIPERFSGSNSGNTATLTISGTQSMDEADYYCQAWYSSSVGVFGGGTRLTVLG
notes: IgG from the 264H-NL library
B5: the “Relative KD improvement” value in experiment [4] stood at 1.3 fold. Also, the Kd in experiment [3] was determined as 138 nM.

B6: hPANLB2-3_359 (antibody, human IgG1, lambda, V domains shown)
VH: QVQLVQSGAEVKKPGASVKVSCKASGYTFTSYYMHWVRQAPGQGLEWMGIINPSGGSTSYAQKFQGRVTMTRDTSTSTVYMELSSLRSEDTAVYYCARAPGHYYYGMDVWGQGTTVTVSS
VL: SYELTQPPSVSVSPGQTASITCSGDKVGEKYASWYQQRPGQSPVLVIYQDTKRPSGIPERFSGSNSGNTATLTISGTQAIDDADYYCQAWDNSAYVIFGGGTKLTVLG
notes: as for B2
B6: the “Relative KD improvement” value in experiment [2] was determined as 1 fold. The molecule further showed a Kd in experiment [3] of 13.5 nM.

B7: PLR2H359#062 (antibody, human IgG1, lambda, V domains shown)
VH: QVQLVQSGAEVKKPGASVKVSCKASGYTFTSYYMHWVRQAPGQGLEWMGIINPSGGSTSYAQKFQGRVTMTRDTSTSTVYMELSSLRSEDTAVYYCARAPGHYYYGMDVWGQGTTVTVSS
VL: SYELTQPPSLSVSPGQTASITCSGDKLGEKYACWYQQKPGQSPALVIYQDTKRPSGIPERFSGSNSGNTATLTISGTQAMDEADYSCQAWDTNTGEVVFGGGTKLTVLG
notes: IgG from the 359H-NL library
On to B7, for which the “Relative KD improvement” value in experiment [5] turned out to be 3.4 fold. The molecule also returned a Kd in experiment [3] of 3.93 nM.

B8: hPANLB2-3_342 (antibody, human IgG1, lambda, V domains shown)
VH: EVQLVQSGAEVKKPGASVKVSCKASGYTFTSYGISWVRQAPGQGLEWMGWISAYNGNTNYAQKLQGRVTMTTDTSTSTAYMELRSLRSDDTAVYYCARHAGYYYGMDVWGKGTMVTVSS
VL: SYELTQPPSVSVSPGQTASITCSGDKLGEKYASWYQQKPGQSPVLVIYQDSKRPSGIPERFSGSNSGNMATLTISGTQAVDEADYYCQTWDSNTAFVFGTGTKVTVLG
notes: as for B2
In the case of B8, the “Relative KD improvement” value in experiment [2] turned out to be 1 fold. The molecule further had a Kd in experiment [3] of 34.5 nM.

B9: PLR2H359#087 (antibody, human IgG1, lambda, V domains shown)
VH: QVQLVQSGAEVKKPGASVKVSCKASGYTFTSYYMHWVRQAPGQGLEWMGIINPSGGSTSYAQKFQGRVTMTRDTSTSTVYMELSSLRSEDTAVYYCARAPGHYYYGMDVWGQGTTVTVSS
VL: SSELTQPPSMSVSPGQTASISCSGDRLGEKYASWYQQKPGQSPVLVIYQDNKRPSGIPERFSGSNSGNTATLTISGTQAIDEADYYCQAWDSNSAYVFGTGTKVTVLG
notes: IgG from the 359H-NL library
For the molecule B9, the “Relative KD improvement” value in experiment [5] was found to be 2.9 fold. The molecule further displayed a Kd in experiment [3] of 4.62 nM.

B10: PF1 Fab displayed on phage (PF1 H chain Fd-g3p fusion with PF1 L chain) (Fab, V domains shown)
VH: QVQLQESGPGLVKPSETLSLTCAVSGYSISDDHAWSWVRQPPGEGLEWIGYISYSGITNYNPSLKGRVTISRDTSKNQFSLKLSSVTAADTAAYYCARVLARITAMDYWGEGTLVTVSS
VL: DIQMTQSPSSLSASVGDSVTITCQASQDISSYLNWYQQKPGKAPELLIYYGSELHSGVPSRFSGSGSGTDFTFTISSLEAEDAATYYCGQGNRLPYTFGQGTKVEIER
notes: also called Fab-displaying phage; phage produced with M13KO7TC-PF1L; not shown: linker peptide and gene 3 protein (g3p) fused to the C terminus of the Fd
For the molecule B10, in experiment [1], the binding result is “binds”.

As usually defined, the Kd is the constant that tells how readily two partners part at equilibrium.

Values taken from US20160264960A1 (Chugai, published 2016).
